Measurements from PMC3299815 (Biochemistry, 2012).

Target: the molecule itself
Assay: SEC

B1: Rv0203-notag (natural protein)
chain: AMAASDPCAASEVARTVGSVAKSMGDYLDSHPETNQVMTAVLQQQVGPGSVASLKAHFEANPKVASDLHALSQPLTDLSTRCSLPISGLQAIGLMQAVQGARR
stoichiometry N: 2
